Experiments:
[1] = target: T1, monomeric HER2 (extracellular domain of HER2 without tag) (human, UniProt P04626 23-652); assay: ELISA, monomeric HER2 (ECD untagged) coated at 2 µg/ml, biotinylated H561-4, Strep-HRP; monomeric HER2, not dimeric HER2
T1 construct: also called HER2 ECD untagged; untagged HER2 ECD, in house
Experimental: (§1) Monomeric HER2 (HER2 ECD untagged) and dimeric HER2 (HER2 ECD Fc-tag) were immobilised at 2 μg/ml on a 96-well maxisorp plate (Nunc) in PBS overnight at 4° C. The plates were blocked for 1 hour with 200 μl of 5% BSA in PBS. […] The dilution series was removed and the plate was washed 3× with phosphate buffered saline with Tween 20 (PBST).
(§2) A 1:5000 dilution of Strep-HRP (Abcam ab) was prepared in 5% BSA and 100 μl was added to the plate and incubated for 1 hour at RT. The plate was then washed 3× with PBST before 100 μl of TMB (Roche) were added, and the plate incubated at RT for 2 mins. The reaction was stopped using 100 μl of 2 M H₂SO₄ and the plate was read at 450 nm.

[2] = target: T2, dimeric HER2 (extracellular domain of HER2 with Fc tag, R&D) (human, UniProt P04626 23-652); assay: ELISA, dimeric HER2 (ECD Fc-tag) coated at 2 µg/ml, biotinylated H561-4, Strep-HRP
T2 construct: Bought protein; also called HER2 ECD Fc-tag; Fc-tagged HER2 ECD; not shown: Fc tag of the bought R&D protein
Experimental: as §1, §2

EC50 [1]: 20.6 nM
EC50 [2]: 1.7 nM
B1: antigen-binding Fc fragment H561-4 (designed binder)
chain: TCPPCPAPELLGGPSVFLFPPKPKDTLMISRTPEVTCVVVDVSHEDPEVKFNWYVDGVEVHNAKTKPREEQYNSTYRVVSVLTVLHQDWLNGKEYKCKVSNKALPAPIEKTISKAKGQPREPQVYTLPPSRDEFFTYWVSLTCLVKGFYPSDIAVEWESNGQPENNYKTTPPVLDSDGSFFLYSKLTVDRRRWTAGNVFSCSVMHEALHNHYTQKSLSLSPGK
notes: C-terminal K or GK may be clipped in manufacture; also called FS102; Fcab
